First the molecules themselves.
T1: CD22 Protein (His Tag), Sino Biological Cat. No. 11958-H08H (UniProt P20273 20-687)
T1 construct: soluble analyte, 50 nM in BLI; also called Sino Biological antigen
T1 sequence (looked up): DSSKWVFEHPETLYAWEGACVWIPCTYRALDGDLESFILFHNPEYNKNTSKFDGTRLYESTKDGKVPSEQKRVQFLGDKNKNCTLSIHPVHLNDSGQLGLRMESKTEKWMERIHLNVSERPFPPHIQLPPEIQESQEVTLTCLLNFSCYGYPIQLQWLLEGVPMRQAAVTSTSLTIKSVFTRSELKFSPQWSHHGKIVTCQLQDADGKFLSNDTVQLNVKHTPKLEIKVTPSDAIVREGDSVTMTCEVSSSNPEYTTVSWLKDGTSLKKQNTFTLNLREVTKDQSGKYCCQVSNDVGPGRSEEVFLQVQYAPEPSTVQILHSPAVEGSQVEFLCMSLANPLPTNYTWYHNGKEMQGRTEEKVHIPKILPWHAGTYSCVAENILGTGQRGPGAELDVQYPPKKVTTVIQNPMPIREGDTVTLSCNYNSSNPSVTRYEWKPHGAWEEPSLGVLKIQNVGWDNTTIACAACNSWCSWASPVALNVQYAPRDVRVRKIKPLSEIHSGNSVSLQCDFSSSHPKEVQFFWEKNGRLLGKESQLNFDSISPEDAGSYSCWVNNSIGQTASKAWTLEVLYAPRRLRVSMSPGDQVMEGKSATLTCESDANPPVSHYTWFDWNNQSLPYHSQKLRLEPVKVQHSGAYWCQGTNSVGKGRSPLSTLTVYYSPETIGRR

B1: MYT1496 (antibody, V domains shown)
VH: QVQLVQSGAEVKKPGSSVKVSCKASHYTFTSYWLHWVRQAPGQGLEWIGYINPRNDYTEYNQNFKDKATITADESTNTAYMELSSLRSEDTAFYFCARRDITTFYWGQGTTVTVSS
VL: DIQLTQSPSSLSASVGDRVTMSCKSSQSVLYSANHKNYLAWYQQKPGKAPKLLIYWASTRESGVPSRFSGSGSGTDFTFTISSLQPEDIATYYCHQYLSSWTFGGGTKVQIK
notes: ADCT-602 VH G26H; tie by order
B2: MYT1513 (antibody, V domains shown)
VH: QVQLVQSGAEVKKPGSSVKVSCKASGYTFTSYWLHWVRQAPGQGLEWIGYINPRNDHTEYNQNFKDKATITADESTNTAYMELSSLRSEDTAFYFCARRDITTFYWGQGTTVTVSS
VL: DIQLTQSPSSLSASVGDRVTMSCKSSQSVLYSANHKNYLAWYQQKPGKAPKLLIYWASTRESGVPSRFSGSGSGTDFTFTISSLQPEDIATYYCHQYLSSWTFGGGTKVQIK
notes: ADCT-602 VH Y57H; tie by order
B3: MYT1499 (antibody, V domains shown)
VH: QVQLVQSGAEVKKPGSSVKVSCKASGYTHTSYWLHWVRQAPGQGLEWIGYINPRNDYTEYNQNFKDKATITADESTNTAYMELSSLRSEDTAFYFCARRDITTFYWGQGTTVTVSS
VL: DIQLTQSPSSLSASVGDRVTMSCKSSQSVLYSANHKNYLAWYQQKPGKAPKLLIYWASTRESGVPSRFSGSGSGTDFTFTISSLQPEDIATYYCHQYLSSWTFGGGTKVQIK
notes: ADCT-602 VH F29H; tie by order
B4: MYT1527 (antibody, V domains shown)
VH: QVQLVQSGAEVKKPGSSVKVSCKASGYTFTSYWLHWVRQAPGQGLEWIGYINPRNDYTEYNQNFKDKATITADESTNTAYMELSSLRSEDTAFYFCARRDHTTFYWGQGTTVTVSS
VL: DIQLTQSPSSLSASVGDRVTMSCKSSQSVLYSANHKNYLAWYQQKPGKAPKLLIYWASTRESGVPSRFSGSGSGTDFTFTISSLQPEDIATYYCHQYLSSWTFGGGTKVQIK
notes: ADCT-602 VH I101H; tie by order
B5: MYT1507 (antibody, V domains shown)
VH: QVQLVQSGAEVKKPGSSVKVSCKASGYTFTSYWLHWVRQAPGQGLEWIGYHNPRNDYTEYNQNFKDKATITADESTNTAYMELSSLRSEDTAFYFCARRDITTFYWGQGTTVTVSS
VL: DIQLTQSPSSLSASVGDRVTMSCKSSQSVLYSANHKNYLAWYQQKPGKAPKLLIYWASTRESGVPSRFSGSGSGTDFTFTISSLQPEDIATYYCHQYLSSWTFGGGTKVQIK
notes: ADCT-602 VH I51H; tie by order
B6: MYT1523 (antibody, V domains shown)
VH: QVQLVQSGAEVKKPGSSVKVSCKASGYTFTSYWLHWVRQAPGQGLEWIGYINPRNDYTEYNQNFKDKATITADESTNTAYMELSSLRSEDTAFYFCHRRDITTFYWGQGTTVTVSS
VL: DIQLTQSPSSLSASVGDRVTMSCKSSQSVLYSANHKNYLAWYQQKPGKAPKLLIYWASTRESGVPSRFSGSGSGTDFTFTISSLQPEDIATYYCHQYLSSWTFGGGTKVQIK
notes: ADCT-602 VH A97H; tie by order
B7: MYT1497 (antibody, V domains shown)
VH: QVQLVQSGAEVKKPGSSVKVSCKASGHTFTSYWLHWVRQAPGQGLEWIGYINPRNDYTEYNQNFKDKATITADESTNTAYMELSSLRSEDTAFYFCARRDITTFYWGQGTTVTVSS
VL: DIQLTQSPSSLSASVGDRVTMSCKSSQSVLYSANHKNYLAWYQQKPGKAPKLLIYWASTRESGVPSRFSGSGSGTDFTFTISSLQPEDIATYYCHQYLSSWTFGGGTKVQIK
notes: ADCT-602 VH Y27H; tie by order
B8: MYT1525 (antibody, V domains shown)
VH: QVQLVQSGAEVKKPGSSVKVSCKASGYTFTSYWLHWVRQAPGQGLEWIGYINPRNDYTEYNQNFKDKATITADESTNTAYMELSSLRSEDTAFYFCARHDITTFYWGQGTTVTVSS
VL: DIQLTQSPSSLSASVGDRVTMSCKSSQSVLYSANHKNYLAWYQQKPGKAPKLLIYWASTRESGVPSRFSGSGSGTDFTFTISSLQPEDIATYYCHQYLSSWTFGGGTKVQIK
notes: ADCT-602 VH R99H; tie by order
B9: MYT1498 (antibody, V domains shown)
VH: QVQLVQSGAEVKKPGSSVKVSCKASGYHFTSYWLHWVRQAPGQGLEWIGYINPRNDYTEYNQNFKDKATITADESTNTAYMELSSLRSEDTAFYFCARRDITTFYWGQGTTVTVSS
VL: DIQLTQSPSSLSASVGDRVTMSCKSSQSVLYSANHKNYLAWYQQKPGKAPKLLIYWASTRESGVPSRFSGSGSGTDFTFTISSLQPEDIATYYCHQYLSSWTFGGGTKVQIK
notes: ADCT-602 VH T28H; tie by order
B10: MYT1504 (antibody, V domains shown)
VH: QVQLVQSGAEVKKPGSSVKVSCKASGYTFTSYWHHWVRQAPGQGLEWIGYINPRNDYTEYNQNFKDKATITADESTNTAYMELSSLRSEDTAFYFCARRDITTFYWGQGTTVTVSS
VL: DIQLTQSPSSLSASVGDRVTMSCKSSQSVLYSANHKNYLAWYQQKPGKAPKLLIYWASTRESGVPSRFSGSGSGTDFTFTISSLQPEDIATYYCHQYLSSWTFGGGTKVQIK
notes: ADCT-602 VH L34H; tie by order
B11: MYT1509 (antibody, V domains shown)
VH: QVQLVQSGAEVKKPGSSVKVSCKASGYTFTSYWLHWVRQAPGQGLEWIGYINHRNDYTEYNQNFKDKATITADESTNTAYMELSSLRSEDTAFYFCARRDITTFYWGQGTTVTVSS
VL: DIQLTQSPSSLSASVGDRVTMSCKSSQSVLYSANHKNYLAWYQQKPGKAPKLLIYWASTRESGVPSRFSGSGSGTDFTFTISSLQPEDIATYYCHQYLSSWTFGGGTKVQIK
notes: ADCT-602 VH P53H; tie by order
B12: MYT1505 (antibody, V domains shown)
VH: QVQLVQSGAEVKKPGSSVKVSCKASGYTFTSYWLAWVRQAPGQGLEWIGYINPRNDYTEYNQNFKDKATITADESTNTAYMELSSLRSEDTAFYFCARRDITTFYWGQGTTVTVSS
VL: DIQLTQSPSSLSASVGDRVTMSCKSSQSVLYSANHKNYLAWYQQKPGKAPKLLIYWASTRESGVPSRFSGSGSGTDFTFTISSLQPEDIATYYCHQYLSSWTFGGGTKVQIK
notes: ADCT-602 VH H35A; tie by order
B13: MYT1508 (antibody, V domains shown)
VH: QVQLVQSGAEVKKPGSSVKVSCKASGYTFTSYWLHWVRQAPGQGLEWIGYIHPRNDYTEYNQNFKDKATITADESTNTAYMELSSLRSEDTAFYFCARRDITTFYWGQGTTVTVSS
VL: DIQLTQSPSSLSASVGDRVTMSCKSSQSVLYSANHKNYLAWYQQKPGKAPKLLIYWASTRESGVPSRFSGSGSGTDFTFTISSLQPEDIATYYCHQYLSSWTFGGGTKVQIK
notes: ADCT-602 VH N52H; tie by order
B14: MYT1521 (antibody, V domains shown)
VH: QVQLVQSGAEVKKPGSSVKVSCKASGYTFTSYWLHWVRQAPGQGLEWIGYINPRNDYTEYNQNFHDKATITADESTNTAYMELSSLRSEDTAFYFCARRDITTFYWGQGTTVTVSS
VL: DIQLTQSPSSLSASVGDRVTMSCKSSQSVLYSANHKNYLAWYQQKPGKAPKLLIYWASTRESGVPSRFSGSGSGTDFTFTISSLQPEDIATYYCHQYLSSWTFGGGTKVQIK
notes: ADCT-602 VH K65H; tie by order
B15: MYT1526 (antibody, V domains shown)
VH: QVQLVQSGAEVKKPGSSVKVSCKASGYTFTSYWLHWVRQAPGQGLEWIGYINPRNDYTEYNQNFKDKATITADESTNTAYMELSSLRSEDTAFYFCARRHITTFYWGQGTTVTVSS
VL: DIQLTQSPSSLSASVGDRVTMSCKSSQSVLYSANHKNYLAWYQQKPGKAPKLLIYWASTRESGVPSRFSGSGSGTDFTFTISSLQPEDIATYYCHQYLSSWTFGGGTKVQIK
notes: ADCT-602 VH D100H; tie by order
B16: MYT2275 (antibody, V domains shown)
VH: EVQLVESGGGLVKPGGSLRLSCAASGFAFSHYDMSWVRQAPGKGLEWVAYISSGGGTTYYPDTVKGRFTISRDNAKNSLYLQMSSLRAEDTAMYYCARHSGYGSSYGVLFAYWGQGTLVTVSS
VL: DIQMTQSPSSLSASVGDRVTITCRASQDISNYLNWYQQKPGKAVKLLIYYTSILHSGVPSRFSGSGSGTDYTLTISSLQQEDFATYFCQQGNTLPWTFGGGTKVEIK
notes: TRPH-222 VH I31H; tie by order
B17: MYT2303 (antibody, V domains shown)
VH: EVQLVESGGGLVKPGGSLRLSCAASGFAFSIYDMSWVRQAPGKGLEWVAYISSGGGTTYYPDTVKGRFTISRDNAKNSLYLQMSSLRAEDTAMYYCARHSGYHSSYGVLFAYWGQGTLVTVSS
VL: DIQMTQSPSSLSASVGDRVTITCRASQDISNYLNWYQQKPGKAVKLLIYYTSILHSGVPSRFSGSGSGTDYTLTISSLQQEDFATYFCQQGNTLPWTFGGGTKVEIK
notes: TRPH-222 VH G103H; tie by order
B18: MYT2301 (antibody, V domains shown)
VH: EVQLVESGGGLVKPGGSLRLSCAASGFAFSIYDMSWVRQAPGKGLEWVAYISSGGGTTYYPDTVKGRFTISRDNAKNSLYLQMSSLRAEDTAMYYCARHSHYGSSYGVLFAYWGQGTLVTVSS
VL: DIQMTQSPSSLSASVGDRVTITCRASQDISNYLNWYQQKPGKAVKLLIYYTSILHSGVPSRFSGSGSGTDYTLTISSLQQEDFATYFCQQGNTLPWTFGGGTKVEIK
notes: TRPH-222 VH G101H; tie by order

The target in this assay is T1, CD22 Protein (His Tag), Sino Biological …. Put plainly: BLI, IgG on anti-human Fc sensor. (In general: Biolayer interferometry detects binding as a change in optical thickness at a sensor tip.)
As to B1, the binding result is given as “no binding (tested: 50 nM)”. B2: the binding result is “no binding (tested: 50 nM)”. For the molecule B3, the binding result is “no binding (tested: 50 nM)”.

As to B4, the binding result is “no binding (tested: 50 nM)”.

On to B5, for which the binding result was “no binding (tested: 50 nM)”. As for B6, the entry is “no binding (tested: 50 nM)”. As for B7, the entry is “no binding (tested: 50 nM)”; as for B8, “no binding (tested: 50 nM)”. B9: the binding result is “no binding (tested: 50 nM)”. In the case of B10, the binding result is reported as “no binding (tested: 50 nM)”. As to B11, the binding result is “no binding (tested: 50 nM)”.

For B12, the binding result is recorded as “no binding (tested: 50 nM)”.

For the molecule B13, the binding result is recorded as “no binding (tested: 50 nM)”. With B14, the binding result was “no binding (tested: 50 nM)”. Take B15: the binding result is “no binding (tested: 50 nM)”. As for B16, the binding result is “no binding (tested: 50 nM)”. Regarding B17, the binding result was “no binding (tested: 50 nM)”. With B18, the binding result is “no binding (tested: 50 nM)”.

(Values after patent publication US20220288219A1 (MYTHIC THERAPEUTICS, published 2022).)
